# Values quoted from earlier work as cited in patent US5362858A, “Polyethylene glycol-hirudin conjugates, process for preparing them and their use for the treatment of thromboses” (Transgene S.A., priority 1992, dated 1994).
# Conditions: removal from the bloodstream
substance,measurement,value
hirudin,half-life period,about 1 h
